Laboratory results as given in patent US7517850B2, “Calcium phosphate nanoclusters and their applications” (priority 1999, dated 2009).
Where two headings read alike, the source gives them in different places. Ends that are not written are not given here.

Columns and labels:
[1] = Test for nanocluster formation (absence of precipitation); assay type: physicochemical; settings: standard conditions for β-casein phosphopeptide nanoclusters modified to the smallest extent; absence of precipitation = nanocluster-like particles
From the text: Nanocluster formation was investigated with the following phosphoproteins, phosphoprotein mixtures, phosphopeptides and phosphopeptide mixtures: • 1. Whole casein • 2. Mixtures of β- and κ-caseins • 3. β-casein 5P • 4. A commercial phosphopeptide mixture supplied by MD foods and derived from casein, containing a large number of phosphopeptides as described by Ellegard et al. (1999). • 5. A phosphopeptide mixture derived from a digestion of whole casein with protease XIV from Streptomyces griseus, and papain type IV containing αs1-casein 2P (f46-51), αs1-casein 4P (f61-70), β-casein 4P (f11-21), αs2-casein 3P (f5-12), αs2-casein 4P (f49-61) and αs2-casein 2P (f126-133). • 6. β-casein phosphopeptides 4P (f1-25) or 4P (f2-25) or 5P (f1-42) • 7. Cyanogen bromide cleavage fragments αs1-casein 2P (f1-54) or αs1-casein 6P (f61-123). • […]. Tryptic phosphopeptides αs1-casein 1P (f104-119) or αs1-casein 2P (f43-58) or αs1-casein 5P (f59-79) or αs1-casein 7P (f43-79)
A test for nanocluster formation was applied in which the standard conditions for the formation of nanoclusters from the β-casein phosphopeptide were modified to the smallest extent possible and applied to the other peptides or peptide mixtures. […] Nanoclusters were found with each of the 6 phosphopeptides and confirmed experimentally by X-ray scattering measurements.

[2] = Confirmation of nanocluster formation by small angle X-ray or neutron scattering; assay type: physicochemical
From the text: The formation of nanoclusters, nanocluster-like particles or larger particles composed of assemblies of nanoclusters has been established by small angle X-ray or neutron scattering experiments, as described by Holt et al. (1996, 1998).

[3] = small angle X-ray or neutron scattering; Holt et al., 1996, 1998; cited from earlier work

Molecule | outcome of test for nanocluster formation [1] | Conclusion (nanocluster formation) [2] | Conclusion (nanocluster formation) [3]
αs1-casein 1P (f104-119): tryptic phosphopeptide of αs1-casein, item 8 (YKVPQLEIVPNSAEER; also: 1 phosphorylation, site not given here; UniProt P02662 119-134, looked up, fragment) | No stable nanocluster solution was formed | Precipitation of calcium phosphate | 
αs1-casein 2P (f1-54): cyanogen bromide cleavage fragment of αs1-casein, item 7 (RPKHPIKHQGLPQEVLNENLLRFFVAPFPEVFGKEKVNELSKDIGSESTEDQAM; also: 2 phosphorylations, sites not given here; UniProt P02662 16-69, looked up, fragment) | failed to dissolve |  | 
αs1-casein 2P (f43-58): tryptic phosphopeptide of αs1-casein, item 8 (DIGSESTEDQAMEDIK; also: 2 phosphorylations, sites not given here; UniProt P02662 58-73, looked up, fragment) | No stable nanocluster solution was formed | Precipitation of calcium phosphate | 
αs1-casein 5P (f59-79): tryptic phosphopeptide of αs1-casein, item 8 (QMEAESISSSEEIVPNSVEQK; also: 5 phosphorylations, sites not given here; UniProt P02662 74-94, looked up, fragment) | Nanoclusters were formed | Clear solution of stable nanoclusters in the normal | 
αs1-casein 7P (f43-79): tryptic phosphopeptide of αs1-casein, item 8 (DIGSESTEDQAMEDIKQMEAESISSSEEIVPNSVEQK; also: 7 phosphorylations, sites not given here; UniProt P02662 58-94, looked up, fragment) | Nanoclusters were formed | Clear solution of stable nanoclusters in the normal | 
β-casein phosphopeptide 4P (f1-25): β-casein phosphopeptide residues 1-25 with 4 phosphorylated residues, item 6 (RELEELNVPGEIVESLSSSEESITR; also: 4 phosphorylations, sites not given here; UniProt P02666 16-40, looked up, fragment) |  |  | Monodisperse nanoclusters formed (Holt et al., 1996,
β-casein phosphopeptide 4P (f2-25): β-casein phosphopeptide residues 2-25 with 4 phosphorylated residues, item 6 (ELEELNVPGEIVESLSSSEESITR; also: 4 phosphorylations, sites not given here; UniProt P02666 17-40, looked up, fragment) |  | Monodisperse nanoclusters formed | 
β-casein phosphopeptide 5P (f1-42): β-casein phosphopeptide residues 1-42 with 5 phosphorylated residues, item 6 (RELEELNVPGEIVESLSSSEESITRINKKIEKFQSEEQQQTE; also: 5 phosphorylations, sites not given here; UniProt P02666 16-57, looked up, fragment) |  |  | Monodisperse nanoclusters formed (Holt et al., 1996,
β-casein 5p: β-casein phosphoprotein with 5 phosphorylated residues, item 3 (protein, UniProt P02666 16-224, looked up, 5 phosphorylations, β-casein phosphoprotein with 5 phosphorylated residues, item 3) Beta-casein: RELEELNVPGEIVESLSSSEESITRINKKIEKFQSEEQQQTEDELQDKIHPFAQTQSLVYPFPGPIPNSLPQNIPPLTQTPVVVPPFLQPEVMGVSKVKEAMAPKHKEMPFPKYPVEPFTESQSLTLTDVENLHLPLPLLQSWMHQPHQPLPPTVMFPPQSVLSLSQSKVLPVPQKAVPYPQRDMPIQAFLLYQEPVLGPVRGPFPIIV | underwent an unlimited aggregation | Uncontrolled precipitation of the β-casein aggregates | 
